Measured values as given in patent US20260130997A1 (BEAM THERAPEUTICS, published 2026).
Numbering of substitutions follows the chain as printed.

Legend:
[1] = target: T1, mutant CD45 D1-D2 protein N263G, T264A (Homo sapiens, UniProt P08575 225-394, limits assumed); test: binding to mutant CD45 D1-D2 protein relative to WT CD45 D1-D2; method not given
T1 chain: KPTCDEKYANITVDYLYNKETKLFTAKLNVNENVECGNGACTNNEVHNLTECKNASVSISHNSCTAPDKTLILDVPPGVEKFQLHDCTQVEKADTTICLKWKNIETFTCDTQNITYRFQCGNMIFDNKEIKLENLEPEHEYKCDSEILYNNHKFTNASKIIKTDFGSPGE

[2] = target: T2, mutant CD45 D1-D2 protein N263S, T264A (Homo sapiens, UniProt P08575 225-394, limits assumed); test: as above
T2 chain: T1 chain with G39S

[3] = target: T3, mutant CD45 D1-D2 protein T266A (Homo sapiens, UniProt P08575 225-394, limits assumed); test: as above
T3 chain: T1 chain with G39N, A40T, T42A

[4] = target: T4, mutant CD45 D1-D2 protein I283M (Homo sapiens, UniProt P08575 225-394, limits assumed); test: as above
T4 chain: T1 chain with G39N, A40T, I59M

[5] = target: T5, mutant CD45 D1-D2 protein E259G (Homo sapiens, UniProt P08575 225-394, limits assumed); test: as above
T5 chain: T1 chain with E35G, G39N, A40T

[6] = target: T6, purified CD45 protein N257G (Homo sapiens, UniProt P08575 225-394, limits assumed); test: biosensor; 100 nM mAb030-9 captured with Anti-Human IgG Fc Capture (AHC), 300 nM purified CD45 protein
T6 construct: Purified CD45 variant of the biosensor assay
T6 chain: T1 chain with N33G, G39N, A40T
Protocol: (§1) 300 nM of purified CD45 protein was contacted with the immobilized antibody. At 300 s the biosensor was placed in buffer without purified CD45 protein.

[7] = target: T7, purified CD45 protein E256G (Homo sapiens, UniProt P08575 225-394, limits assumed); test: as above
T7 construct: Purified CD45 variant of the biosensor assay
T7 chain: T1 chain with E32G, G39N, A40T
Protocol: as §1

[8] = target: T8, purified CD45 protein N286D (Homo sapiens, UniProt P08575 225-394, limits assumed); test: as above
T8 construct: Purified CD45 variant of the biosensor assay
T8 chain: T1 chain with G39N, A40T, N62D
Protocol: as §1

[9] = target: T9, purified CD45 protein N267S (Homo sapiens, UniProt P08575 225-394, limits assumed); test: as above
T9 construct: Purified CD45 variant of the biosensor assay
T9 chain: T1 chain with G39N, A40T, N43S
Protocol: as §1

[10] = target: T10, purified CD45 protein N257D (Homo sapiens, UniProt P08575 225-394, limits assumed); test: as above
T10 construct: Purified CD45 variant of the biosensor assay
T10 chain: T1 chain with N33D, G39N, A40T
Protocol: as §1

% Mutant Binding [1]: 106%
% Mutant Binding [2]: 122%
% Mutant Binding [3]: 73.4%
% Mutant Binding [4]: 12.9%
% Mutant Binding [5]: 2.7%
response [6]: < 0.05 nm
response [7]: < 0.05 nm
response [8]: < 0.05 nm
response [9]: < 0.05 nm
response [10]: < 0.05 nm
B1: mAb U139AGL030-9 (mAb030-9) (antibody, mouse IgG1, kappa, V domains shown)
VH: EVKLLESGGGLVQPGGSLKLSCAASGFDFSRYWMSWVRQAPGKGLEWIGEINPTSSTINFTPSLKDKVFISRDNAKNTLYLQMSKVRSEDTALYYCARGNYYRYGDAMDYWGQGTSVTVSS
VL: DIALTQSPASLAVSLGQRATISCRASKSVSTSGYSYLHWYQQKPGQPPKLLIYLASNLESGVPARFSGSGSGTDFTLNIHPVEEEDAATYYCQHSRELPFTFGSGTKLEIKR
notes: In the biosensor assay the antibody was captured with Anti-Human IgG Fc Capture (AHC); also called mAb30-9; mAb039-9
